Biological target: the molecule itself
Experiment: cryo-EM structure; full-length NL2 alone; 20 mM Hepes-Na pH 7.5, 150 mM NaCl, 1 mM MgCl2, 0.5 mM CaCl2, 0.06% digitonin, brain polar lipid extract; only the ECD resolved

B1: full-length neuroligin 2 (NL2), mouse, without the splice insert at site A (receptor, UniProt Q69ZK9 15-836, looked up)
chain: QRGGGGPGGGAPGGPGLGLGSLGEERFPVVNTAYGRVRGVRRELNNEILGPVVQFLGVPYATPPLGARRFQPPEAPASWPGVRNATTLPPACPQNLHGALPAIMLPVWFTDNLEAAATYVQNQSEDCLYLNLYVPTEDDIRDSGKKPVMLFLHGGSYMEGTGNMFDGSVLAAYGNVIVVTLNYRLGVLGFLSTGDQAAKGNYGLLDQIQALRWLSENIAHFGGDPERITIFGSGAGASCVNLLILSHHSEGLFQKAIAQSGTAISSWSVNYQPLKYTRLLAAKVGCDREDSTEAVECLRRKSSRELVDQDVQPARYHIAFGPVVDGDVVPDDPEILMQQGEFLNYDMLIGVNQGEGLKFVEDSAESEDGVSASAFDFTVSNFVDNLYGYPEGKDVLRETIKFMYTDWADRDNGEMRRKTLLALFTDHQWVAPAVATAKLHADYQSPVYFYTFYHHCQAEGRPEWADAAHGDELPYVFGVPMVGATDLFPCNFSKNDVMLSAVVMTYWTNFAKTGDPNQPVPQDTKFIHTKPNRFEEVVWSKFNSKEKQYLHIGLKPRVRDNYRANKVAFWLELVPHLHNLHTELFTTTTRLPPYATRWPPRTPGPGTSGTRRPPPPATLPPESDIDLGPRAYDRFPGDSRDYSTELSVTVAVGASLLFLNILAFAALYYKRDRRQELRCRRLSPPGGSGSGVPGGGPLLPTAGRELPPEEELVSLQLKRGGGVGADPAEALRPACPPDYTLALRRAPDDVPLLAPGALTLLPSGLGPPPPPPPPSLHPFGPFPPPPPTATSHNNTLPHPHSTTRV
modifications: N-glycans
notes: Neuroligin 2, mouse, amplified from pNICE-NL2(−); lacks the splice insert at site A (missing G153-T169 in UniProt Q69ZK9); its own signal peptide was replaced with that of NL1 followed by an HA tag; PreScission site before the C-terminal EGFP; S1A; also called NL2 WT; wild-type NL2; source: HEK293T, BacMam virus, purified (GFP-nanobody resin, eluted by PPX digestion, SEC); not shown: EGFP, …
  stoichiometry N: 2

Reference: publication PMC12985673, “Weaker neuroligin 2–neurexin β1 interaction tethers membranes and recruits gephyrin at membrane junctions through clustering” (Science Advances, 2026)
